{
  "source": "paper PMC4319037",
  "about": "“The B-type Channel Is a Major Route for Iron Entry into the Ferroxidase Center and Central Cavity of Bacterioferritin*” (The Journal of Biological Chemistry, 2014)",
  "target": "the molecule itself",
  "experiment": "crystal structure; hanging-drop vapor diffusion; ammonium sulfate (50-80% saturated), NaCl 0.1 M, Tris HCl 20 mM pH 7.2; BFR D132F with <1 heme/24-mer; 12 monomers in the asymmetric unit; 2.0 Å",
  "data": [
    {"protein": "E. coli bacterioferritin D132F variant (natural protein, Bacterioferritin (BFR), E. coli, bfr gene in pET21a (pALN1) with D132F made by QuikChange; the model holds '12 complete monomers' in the asymmetric unit (1896 C-alpha atoms for the 12-mer, i.e. 158 per chain); Crystallised with <1 heme/24-mer, free of metal ions (apo); no tag is mentioned; also called BFR D132F; apo-D132F variant; copies: 24) not shown", "values": [
      {"measurement": "binding result", "value": "binds"}
    ]}
  ]
}
